The target of series [1] is T1, HIV-1 reverse transcriptase (RT) (HIV-1, UniProt P04585;P04585 P04585:588-1147,P04585:588-1027). Briefly: inhibition; RT activity, 80 mM KCl, 6 mM MgCl2, pH 8.0, 37 C. How it is done: (§1) In vitro RT inhibition. To determine the IC₅₀ values, self-cleaved RNA aptamers were gel purified and eluted in 500 mM NH₄OAc/1 mM EDTA/0.2% SDS. RNA was then treated with phenol/chloroform and ethanol precipitated. RT reactions (50 μl) contained 80 mM KCl, 50 mM Tris-Cl (pH 8.0), 6 mM MgCl₂, 1 mM dithiothreitol (DTT), 0.1 mg/ml BSA, 10 μM […], 25 μM each of the remaining three dNTPs, and a range of concentrations of RNA aptamers (1 nM to 1000 nM). Reactions were incubated at 37° C. for 15 min. Reactions initiated by the addition of 25 ng of purified HIV-1 RT and at the end of the reaction, aliquots were spotted onto DE81 filter paper and washed with 2×SSC (30 mM Sodium Citrate, 300 mM NaCl pH 7.0). Dried filters were then counted and individual IC₅₀s were determined by fitting results to a dose-response curve using nonlinear regression (GraphPad Software Inc., San Diego, Calif.).
(§2) Next, the ability of each of the 10 selected RNA aptamers to inhibit recombinant purified HIV-1 RT was evaluated in vitro and the degree of inhibition (IC₅₀) by each aptamer was determined. In vitro transcription of the primary transcripts with T3 RNA polymerase was followed by gel purification of the processed aptamers. The IC₅₀s calculated ranged from 89 nM to >1000 nM (Table 1). Six RNA aptamers were selected for further studies, to test their effectiveness in inhibiting HIV-1 replication.

The target in series [2] is T1, HIV-1 reverse transcriptase (RT). Briefly: EMSA; 50 mM KCl, 25 mM NaCl, 5% glycerol, BSA, 25 C. How it is done:
(§3) Radiolabeled, processed RNA aptamers were gel purified and eluted in 500 mM NH₄OAc/1 mM EDTA/0.2% SDS. RNA was then treated with phenouchloroform and ethanol precipitated. Electrophoretic mobility shift assays were performed by incubating 10 fmol purified RNA aptamer with increasing amounts of purified HIV-1 RT at 25° C. in 10 μl of buffer containing 50 mM KCl, 25 mM NaCl, 5% glycerol, 300 μg/ml BSA. The reaction products were electrophoresed on native polyacrylamide gels. Dried gels were exposed to a phosphorimager screen and Kd calculated by using the ImageQuant software. To determine the binding strengths, the percentage of band shift observed with increasing concentrations of RT (1 nM to 500 nM), with respect to the no protein control lane, was first determined. The Kd values were determined by fitting data from three independent experiments to a dose response curve using nonlinear regression (Cann 1996) (GraphPad Software Inc.).
Therefore, the ability of each of the 10 selected RNA aptamers to bind recombinant purified HIV-1 RT was evaluated in vitro via an electrophoretic mobility shift assay (EMSA) and the dissociation constants determined for each individual aptamer in its processed form. In vitro transcription of the primary transcripts, with T3 RNA polymerase was followed by gel purification of the processed aptamers. The aptamer RNAs were incubated with increasing concentrations of purified recombinant HIV-1 RT, the reactions were resolved on a non-denaturing polyacrylamide gel (FIG. 3) and Kd values calculated based on the degree of band shift caused by the formation of RNA-protein complexes (see Methods section).
A general note: Mobility shift assays separate free from complexed probe on a gel.

Series [3] shares this target. Briefly: EMSA; 50 mM KCl, 25 mM NaCl, 5% glycerol, BSA, 25 C; processed RNA with flanks. The note with it: pseudoknot-like potential stated for some aptamers. Here is the method: as §3
Therefore, the ability of each of the 10 selected RNA aptamers to bind recombinant purified HIV-1 RT was evaluated in vitro via an electrophoretic mobility shift assay (EMSA) and the dissociation constants determined for each individual aptamer in its processed form. In vitro transcription of the primary transcripts, with T3 RNA polymerase was followed by gel purification of the processed aptamers. […]

Series [4] has the same target. In words: inhibition; RT activity, 80 mM KCl, 50 mM Tris pH 8.0, 6 mM MgCl2, 37 C. The note with it: pseudoknot-like potential stated for some aptamers. Here is the method: as §1, §2

From patent publication US20050222400, “Aptamer constructs” (published 2005) come the findings set out here.

B1: aptamer 80.55,65 (ssRNA)
RNA: AGCUCGAGCUCGAAUUCAUUUAAUUCCAUAAUGGCUCACCACAAGGGGAACGUUGAUGAAAUAGGGCCCGGAUCCGUC
For the molecule B1, the IC50 in series [1] worked out at 143 nM. Further, the Kd in series [2] came out at 129 nM.

B2: aptamer 70.8,13 (ssRNA)
RNA: AGCUCGAGCUCGAAUUCAAAGAGAUCUGGCAGUGUCACAACCAGGAAAAAGACACGACGAACGGGCCCGGAUCCGUC
For B2, the dissociation constant Kd in series [3] came out at 27 nM. Besides, half-maximal inhibition in series [4] (IC50) was put at 89 nM.

B3: aptamer 70.15 (ssRNA)
RNA: AGCUCGAGCUCGAAUUCCCUACGAACCCAGGAGAUAAGGGGGAAAACUCUGGAAAACGGGCCCGGAUCCGUC
As to B3, in series [1], the IC50 was 159 nM. The molecule further had a Kd in series [2] of 63 nM.

B4: aptamer 70.28 (ssRNA)
RNA: AGCUCGAGCUCGAAUUCACAAGAACCGGACCGGGUGAGAACCGAGACAAACACCCACCAAGAGGGCCCGGAUCCGUC
In turn, B4 came in with a half-inhibitory concentration (IC50) in series [1] (pseudoknot) of 254 nM. The molecule further gave a Kd in series [2] (pseudoknot) of 201 nM.

B5: aptamer 70.28t34 (ssRNA)
RNA: AGCUCGAGCUCGAAUUCGGGAACCGGACGGGUGAGAACCGAGACAAACACCGGGCCCGGAUCCGUC
Consider B5, for which the IC50 in series [1] amounted to 327 nM. The molecule also yielded a Kd in series [2] of 219 nM.

B6: aptamer 1.1 (ssRNA)
RNA: AGCUCGAGCUCGAAUUCGGGAGAUUCCGUUUUCAGUCCGGGAAAAACUGAAGGGCCCGGAUCCGUC
As to B6, the 50% inhibitory concentration (IC50) in series [1] is 607 nM. Also, in series [2], the Kd amounted to 270 nM.

For orientation: IC50 means the concentration needed to halve the response being measured. The low end stands for greater potency in that assay, the high end for weaker potency in that assay. As usually defined, the Kd is the equilibrium constant for the complex coming apart. Low readings indicate a tighter complex, high ones a looser complex.
